{
  "source": "paper PMC13395435",
  "key": {"3xHA-NLuc-dSP-AVR-Pia": {"target": "3xHA-NLuc-dSP-AVR-Pia (UniProt B9WZW9)", "assay": "split luciferase complementation assay", "details": "parent: est. 3400; read off a plot"}, "OsHIPP21-HMA (rice)": {"target": "OsHIPP21-HMA (rice)", "assay": "ITC"}, "OsHPP09-HMA (rice)": {"target": "OsHPP09-HMA (rice)", "assay": "ITC"}, "OsHPP10-HMA (rice)": {"target": "OsHPP10-HMA (rice)", "assay": "ITC"}, "OsHPP11-HMA (rice)": {"target": "OsHPP11-HMA (rice)", "assay": "ITC"}, "[1]": {"target": "recombinant OsHIPP21-HMA (rice)", "assay": "ITC"}, "[2]": {"target": "recombinant OsHPP09-HMA (rice)", "assay": "ITC"}, "[3]": {"target": "recombinant OsHPP10-HMA (rice)", "assay": "ITC"}, "[4]": {"target": "recombinant OsHPP11-HMA (rice)", "assay": "ITC"}, "[5]": {"target": "recombinant OsHPP09-HMA (rice)", "assay": "NMR titration"}},
  "note": "Several values for one entry are separate records, joined by “and”; a condition that tells them apart may be missing. Equal entries are not always repeated.",
  "data": [
    {"substance": "3xFlag-CLuc-OsHPP09 full-length A37W", "values": [
      {"measurement": "response", "setting": "3xHA-NLuc-dSP-AVR-Pia", "value": 1300}
    ]},
    {"substance": "3xFlag-CLuc-OsHPP09 full-length D33A", "values": [
      {"measurement": "response", "setting": "3xHA-NLuc-dSP-AVR-Pia", "value": 2800}
    ]},
    {"substance": "3xFlag-CLuc-OsHPP09 full-length D33H", "values": [
      {"measurement": "response", "setting": "3xHA-NLuc-dSP-AVR-Pia", "value": 2600}
    ]},
    {"substance": "3xFlag-CLuc-OsHPP09 full-length D33R", "values": [
      {"measurement": "response", "setting": "3xHA-NLuc-dSP-AVR-Pia", "value": 2000}
    ]},
    {"substance": "3xFlag-CLuc-OsHPP09 full-length K19A", "values": [
      {"measurement": "response", "setting": "3xHA-NLuc-dSP-AVR-Pia", "value": 1800}
    ]},
    {"substance": "3xFlag-CLuc-OsHPP09 full-length K19W", "values": [
      {"measurement": "response", "setting": "3xHA-NLuc-dSP-AVR-Pia", "value": 1500}
    ]},
    {"substance": "3xFlag-CLuc-OsHPP09 full-length Q20A", "values": [
      {"measurement": "response", "setting": "3xHA-NLuc-dSP-AVR-Pia", "value": 3100}
    ]},
    {"substance": "AVR-Pia (natural protein)", "values": [
      {"measurement": "Kd", "setting": "OsHIPP21-HMA (rice)", "value": "1970 nM and 2330 nM"},
      {"measurement": "Kd", "setting": "OsHPP09-HMA (rice)", "value": "125 nM and 185 nM"},
      {"measurement": "Kd", "setting": "OsHPP10-HMA (rice)", "value": "6510 nM and 7470 nM"},
      {"measurement": "Kd", "setting": "OsHPP11-HMA (rice)", "value": "925 nM and 929 nM"}
    ]},
    {"substance": "recombinant AVR-Pia (from UniProt B9WZW9 1-85) (natural protein)", "values": [
      {"measurement": "Kd", "setting": "[1]", "value": 1290, "unit": "nM"},
      {"measurement": "Kd", "setting": "[2]", "value": 115, "unit": "nM"},
      {"measurement": "Kd", "setting": "[3]", "value": 5260, "unit": "nM"},
      {"measurement": "Kd", "setting": "[4]", "value": 772, "unit": "nM"},
      {"measurement": "Kd", "setting": "[5]", "value": "< 100", "unit": "nM"}
    ]}
  ]
}
